# Results taken from PMC11059090.
# Experiments:
# [1] = system: ALEXA-594-labeled rabbit anti-human IgG Fc-specific monoclonal (594-RAH) (rabbit); experiment: FRET titration; details: apparent Kd, ITC: PBS (10 mM phosphate, 2.7 mM KCl, 137 mM NaCl, pH 7.4), 25 C, FRET: Ex 550 nm, Em 620/670 nm, titration buffer not stated
# [2] = system: rabbit anti-human IgG Fc-specific monoclonal (RAH) (rabbit); experiment: ITC; details: unlabeled IgG; 80 uM aptamer into 2.5 uM IgG; ITC: PBS (10 mM phosphate, 2.7 mM KCl, 137 mM NaCl, pH 7.4), 25 C; FRET: Ex 550 nm, Em 620/670 nm, titration buffer not stated
# [3] = system: purified whole IgG from rabbit serum (polyclonal) (rabbit); experiment: ITC; details: unlabeled IgG; 80 uM aptamer into 2.5 uM IgG; ITC: PBS (10 mM phosphate, 2.7 mM KCl, 137 mM NaCl, pH 7.4), 25 C; FRET: Ex 550 nm, Em 620/670 nm, titration buffer not stated
sequence,measurement,setting,value
CCAACCACACATCCTTCCATCGACATGGACCCACCGTTCC [AptaShield DNA aptamer],Kd,[1]; RAH-594 titrated into 200 nM aptamer,95 nM
same,Kd,[1]; aptamer titrated into 200 nM RAH-594,44.5 nM
same,Kd,[2],224 nM
same,Kd,[3],890 nM
